What is called Kd is the constant that tells how readily two partners part at equilibrium. A higher Kd goes with a looser complex. By koff is commonly meant a measure of how fast the partners let go of each other. A lower koff goes with slow dissociation. One may read the kon as the second-order rate constant of association. High values mean fast association, low ones slow association.

Assay [1] deals with T1, stabilized soluble SARS-CoV-2 S ectodomain trimer in the pre-fusion conformation (SARS-CoV-2; bacteriophage T4, UniProt P0DTC2 14-1208; P10104 458-484).
T1 construct: also called soluble S trimer; S trimer

The target of assay [2] is T1, stabilized soluble SARS-CoV-2 S …. The source holds these as a separate data set.

Where two headings read alike, the source gives them in different places.

B1: ACE2615-foldon-K353Y (receptor)
chain: QSTIEEQAKTFLDKFNHEAEDLFYQSSLASWNYNTNITEENVQNMNNAGDKWSAFLKEQSTLAQMYPLQEIQNLTVKLQLQALQQNGSSVLSEDKSKRLNTILNTMSTIYSTGKVCNPDNPQECLLLEPGLNEIMANSLDYNERLWAWESWRSEVGKQLRPLYEEYVVLKNEMARANHYEDYGDYWRGDYEVNGVDGYDYSRGQLIEDVEHTFEEIKPLYEHLHAYVRAKLMNAYPSYISPIGCLPAHLLGDMWGRFWTNLYSLTVPFGQKPNIDVTDAMVDQAWDAQRIFKEAEKFFVSVGLPNMTQGFWENSMLTDPGNVQKAVCHPTAWDLGYGDFRILMCTKVTMDDFLTAHHEMGHIQYDMAYAAQPFLLRNGANEGFHEAVGEIMSLSAATPKHLKSIGLLSPDFQEDNETEINFLLKQALTIVGTLPFTYMLEKWRWMVFKGEIPKDQWMKKWWEMKREIVGVVEPVPHDETYCDPASLFHVSNDYSFIRYYTRTLYQFQFQEALCQAAKHEGPLHKCDISNSTEAGQKLFNMLRLGKSEPWTLALENVVGAKNMNVRPLLNYFEPLFTWLKDQNKNSFVGWSTDWSPYADSGGGGSGGYIPEAPRDGQAYVRKDGEWVLLSTFLGGSHHHHHH
notes: also called Sol-ACE2-Foldon-K353Y
For B1, in assay [1], the affinity, expressed as Kd, was 32.3 nM; the ka2 was found to be 0.397; the kdis2 is 0.00545; the dissociation rate constant (koff) turned out to be 0.00322 s⁻¹. This molecule yielded a kon in assay [1] of 99600 M⁻¹ s⁻¹. In addition, in assay [2], the affinity, expressed as Kd, was 32.3 nM.
